Target: PhTX-II PLA2 (Porthidium hyoprora)

Row | Substance | inhibition of the PLA2 enzymatic activity of PhTX-II (substrate 4-nitro-3-(octanoyloxy) benzoic acid) after incubating the two proteins 1:1 w/w for 30 min at 37 °C [%]
1 | crotapotin F3 from Crotalus durissus collilineatus (natural protein) | 60
2 | crotapotin F2 from Crotalus durissus collilineatus (natural protein) | 60

From article PMC4247251
